Measured values taken from the DeepSol protein solubility set.

Experiment: soluble on expression in E. coli; label from the status in PepcDB or PDB records

**Q.** For “ELQKKIKAADDIFPNQKKNPDKKDNPNVLEVLGEYGGDGFFPTLGNNGLNIPDQVFQSFNNFQIENYKISDFKVDIASERDIVQHDKFRFSYVVN”, which “soluble on expression in E. coli” value is on record?
**A.** soluble

**Q.** With “MSLNKLVDAHCHVITDPDNTFCGDDGGSQGTLRCVMSSNPYDWNNLKKLAGRSTSKNDICVGFGVHPWYSHLFYVGSRRDKVSHYQDVLEYKNEEQFDSLVQVLPEPLDLEEYIKREFNDTLVSVIGEIGLDKLFRLPANGFYMQNEKARLTTVKVKLSHQETVFRRFCRLARHTSKPISIHDVKCHGKLNDICNEELLTYHSVKICLHSYTGSKETLLGQWLKKFPPDRIFVSLSKWINFKDPEEGDALVRSLPSTCILTETDYPIDNPDPSYQKALTEQLQYLNAQIARAWDETLDASQAALRVYENFQKFIKEGHHHHHH” as the sequence, how does the “soluble on expression in E. coli” value read?
**A.** not soluble

**Q.** Which “soluble on expression in E. coli” value does the source give for “MGSDKIHHHHHHETRECIYYNANWELERTNQSGLERCEGEQDKRLHCYASWRNSSGTIELVKKGCWLDDFNCYDRQECVATEENPQVYFCCCEGNFCNERFTHLPEPG” here?
**A.** soluble

**Q.** For “MGSDKIHHHHHHMETLELQGAKLRYHQVGQGPVLIFIPGANGTGNIFLPLAEQLKDHFTVVAVDRRDYGESELTEPLPDSASNPDSDYRVKRDAQDIAELAKSLSDEPVYILGSSSGSIVAMHVLKDYPEVVKKIAFHEPPINTFLPDSTYWKDKNDDIVHQILTEGLEKGMKTFGETLNIAPIDAKMMSQPADTEEGRIEQYKRTMFWSEFEIRQYTHSDITLDDFTKYSDKITLLNGTDSRGSFPQDVNFYINKETGIPIVDIPGGHLGYIQKPEGFADVLLNMWG”, which “soluble on expression in E. coli” value is on record?
**A.** not soluble

**Q.** With “MLKKNDIVEVEIVDLTHEGAGVAKVDGLVFFVENALPSEKILMRVLKVNKKIGFGKVEKYLVQSPHRNQDLDLAYLRSGIADLGHLSYPEQLKFKTKQVKDSLYKIAGIADVEVAETLGMEHPVKYRNKAQVPVRRVNGVLETGFFRKNSHNLMPLEDFFIQDPVIDQVVVALRDLLRRFDLKPYDEKEQSGLIRNLVVRRGHYSGQIMVVLVTTRPKVFRVDQLIEQVIKQFPEIVSVMQNINDQNTNAIFGKEWRTLYGQDYITDQMLGNDFQIAGPAFYQVNTEMAEKLYQTAIDFAELKKDDVIIDAYSGIGTIGLSVAKHVKEVYGVELIPEAVENSQKNASLNKITNAHYVCDTAENAMKKWLKEGIQPTVILVDPPRKGLTESFIKASAQTGADRIAYISCNVATMARDIKLYQELGYELKKVQPVDLFPQTHHVETVALLSKLDVDKHISVEIELDEMDLTSAESKATYAQIKEYVWNKFELKVSTLYIAQIKKKCGIELREHYNKSKKDKQIIPQCTPEKEEAIMDALRHFKMI” as the sequence, how does the “soluble on expression in E. coli” value read?
**A.** not soluble

**Q.** With “MPQFSNRRRVPHSAQQMFDLVADVERYPQFVPLCKALKIRERIQQPDGNEVVIADMTVSFKLVQETFTSRVTLDRANLKILVEYLKGPFSNLENRWTFAAKTERACEVGFFIAYEFKSRMLATLMGAMFDTAFHRFAEAFETRADQIYGTGPKLSRALEHHHHHH” as the sequence, how does the “soluble on expression in E. coli” value read?
**A.** not soluble

**Q.** With “MFGRHSIIPNNQIGTASASAGEDHVSASATSGHIPYDDMEEIPHPDSIYGAASDLIPDGSQLVAHRSDGSELLVSRPPEGANQLTISFRGQVYVFDAVGADKVDAVLSLLGGSTELAPGPQVMELAQQQNHMPVVEYQSRCSLPQRAQSLDRFRKKRNARCFEKKVRYGVRQEVALRMARNKGQFTSSKMTDGAYNSGTDQDSAQDDAHPEISCTHCGISSKCTPMMRRGPSGPRTLCNACGLFWANRGTLRDLSKKTEENQLALMKPDDGGSVADAANNLNTEAASVEEHTSMVSLANGDNSNLLGDH” as the sequence, how does the “soluble on expression in E. coli” value read?
**A.** soluble

**Q.** With “MGSDKIHHHHHHMENAPEPIETVKKGKCKVECQNKERFILIEKENGKAMYHTKIMMDIYKFGVYEKKHEFRLSLRALFNGERIVEETHLYPIKEGDKFIGIFYGYRKPIKKPLIKYQINGTKKAYALARAYYMEFRFKAGSVFCYFKGLYRLLDKKRTNNHYNKVLFSMFTDLEQQVYKFYGKKYPEQGPLIKWILKNLK” as the sequence, how does the “soluble on expression in E. coli” value read?
**A.** not soluble

**Q.** Which “soluble on expression in E. coli” value does the source give for “MYKIGIDVGGTNTDAVILDHQLNLIHSVKVPTTDDIQTGIAGALNKVLAESAVDPTKVTHAMLGTTQCTNAIVERKKLAKVGVLRLGYPATASVLPYTAWPKDLVATLSETYALAHGGYEYDGQPLTALDEEELRGILASWRGEVEAIAVIGVFSSLKNDQELFVQALAKEVL” here?
**A.** not soluble

**Q.** For “MAREELRRHLVGLIERSRVVIFSKSYCPHSTRVKELFSSLGVECNVLELDQVDDGARVQEVLSEITNQKTVPNIFVNKVHVGGCDQTFQAYQSGLLQKLLQEDLAYDAENLYFQ”, which “soluble on expression in E. coli” value is on record?
**A.** soluble

**Q.** For “MVTFMITSALHRAADWAKSVFSSAALGDPRRTARLVNVAAQLAKYSGKSITISSEGSKAAQEGAYRFIRNPNVSAEAIRKAGAMQTVKLAQEFPELLAIEDTTSLSYRHQVAEELGKLGSIQDKSRGWWVHSVLLLEATTFRTVGLLHQEWWMRPDDPADADEKESGKWLAAAATSRLRMGSMMSNVIAVCDREADIHAYLQDKLAHNERFVVRSKHPRKDVESGLYLYDHLKNQPELGGYQISIPQKGVVDKRGKRKNRPARKASLSLRSGRITLKQGNITLNAVLAEEINPPKGETPLKWLLLTSEPVESLAQALRVIDIYTHRWRIEEFHKAWKTGAGAERQRMEEPDNLERMVSILSFVAVRLLQLRESFTPPQALRAQGLLKEAEHVESQSAETVLTPDECQLLGYLDKGKRKRKEKAGSLQWAYMAIARLGGFMDSKRTGIASWGALWEGWEALQSKLDGFLAAKDLMAQGIKIG”, which “soluble on expression in E. coli” value is on record?
**A.** soluble

**Q.** Which “soluble on expression in E. coli” value does the source give for “MTLGELREEVWNALARYDLALHPTPPHGHHPNFLGARRAAERLLKTPEFQGARRVLAGMDAVLKPLREEALRQGKELLLPHPDRPGEFLLLRDVDPRKLKRVREAYRFGVRVALEEATPDLVLIGAVAVDEEGGWVGKGYGFPQSWLRVEAPFATLAHPVMVYPRLPVPPERRVDLIATPQRLLRLG” here?
**A.** soluble

**Q.** Which “soluble on expression in E. coli” value does the source give for “MSLNDTFVVVDLETTGHSVKKGGRIIQIGMTFIKKRQIVDHFESFVNPGQLIDRQIQQLTHISQKDVQNAPYFEEIAPLLQNLLQNTVIIAHNVNFDYPYLNDEFERTGFPLLKSAAIDTVQLAQIMFPTAPGYRLLDLTTYLNITLKNAHRANADAHATALLFLKFWKKLEELPDITLKQLQQGDWPLLRQTQQFLKLVHSKNEGHHHHHH” here?
**A.** not soluble

**Q.** For “MSLSSARFDSSDRSAWYMGPVSRQEAQTRLQGQRHGMFLVRDSSTCPGDYVLSVSENSRVSHYIINSLPNRRFKIGDQEFDHLPALLEFYKIHYLDTTTLIEPAPRYPSPPMGSVSAPNLPTAEDNLEYVRTLYDFPGNDAEDLPFKKGEILVIIEKPEEQWWSARNKDGRVGMIPVPYVEKLVRSSPHGKHGNRNSNSYGIPEPAHAYAQPQTTTPLPAVSGSPGAAITPLPSTQNGPVFAKAIQKRVPCAYDKTALALEVGDIVKVTRMNINGQWEGEVNGRKGLFPFTHVKIFDPQNPDENEGHHHHHH”, which “soluble on expression in E. coli” value is on record?
**A.** soluble

**Q.** Which “soluble on expression in E. coli” value does the source give for “NALHVINMVGTRHATPYGQDICTRFLADLSVLCPNALIVSGLAYGIDIHAHRAALQNHFKTIGVLAHGLDRIYPAEHRKTAVSMLEQGGLLTEFTSGTNPDRQNFVKRNRIVAGMSDATVVIESAAKGGALITAELAESYHRDCFAFPGRCNDEYSIGCNNLIRKNQAVLITSAEDLVKAMGWESSPKTEKT” here?
**A.** not soluble

**Q.** For “MGSDKIHHHHHHMILAAKLFGISENGIRVAVTRLASEGVIVSAERGFYQLSEQSLEWADVMLNRRAGLKETKAWNQKYLCVLTGTLGRVDRTALKRRERALKKYGFRELEPSVYIRPDNLVISLEDMLEHMKSIGLESGAKMCHINSFDQITTGMIKDLWQTENLNKNYEKYSHIIQHWLSRVPALGLEDAARESLLLGRQTISLLMNDPLLPEPFVNVEARDQFTADVKKLDEVGQRLWKQLHELTFGTAATSLLNLELPAVADVTPKILN”, which “soluble on expression in E. coli” value is on record?
**A.** not soluble

**Q.** Which “soluble on expression in E. coli” value does the source give for “MGSDKIHHHHHHMRVMAFVQARMGSTRLPGKSLMPVWNGMGVLEMTLRRALRARTLSGVVLCTSTDPACDALETLASGLGVQAFRGPEDDVLTRYALATERFEPDAVVRICADSPLVCPEGIDALVAFFRDEGLDYAAHAMDGTGLPDGLGCEVFTAAALAQAHAEATAPEDREHVSLFIRHRPERFRQATLAADAALRAPGVSLDVDTQDDLDALRRFIMALPPSEGPFWSADAIAPLARGLHTPPQGTSMDIASDDYHDFFIRDGKLIGEFEQMYRKSRHAPWHQDEACDKWFNKVSAALVGHALDDPSVRTVFEVGSGLGYFLSQFAGEGRTLTGTDVSATAVEKARALFPGISFEVDDIRFEGRRGPYDLCLMQAVCWCIFPHMDDVVRNVTATVRPGGYLFLGECFQPLDGPFAGKDVIPTPDALIGHFSHAFDTVADVRVTRGEMGGGPIIYWLGRRRG” here?
**A.** not soluble

**Q.** For “MGSDKIHHHHHHMQDKVIPSLSAAIAKEVERRTQGVDWCETEIAGLDFYRQSAPTSCSVCVVEPSIALVVQGAKAMTLGEQTFRYDPSRFLITSLDLPAKMQVLEASEEAPYLGVVIKLDLAVMSDLMLQTPLTMQKETASDQGMILGATTPKLLGAISRLVNLLDEPESIAVLAPLIKREIYWRVLMSEQGARLRQIVSAGSHGLRIARTIEWLKVHYDQHLSVDSLADMARMSKSTFHHHFRRLTSMSPLQYQKRLRLLEARRLMLGEDIDASAAAYRVGYESPSQFSREYSRLFGASPKKDVATQWQ”, which “soluble on expression in E. coli” value is on record?
**A.** not soluble

**Q.** Which “soluble on expression in E. coli” value does the source give for “GGSVIVIDSKAAWDAQLAKGKEEHKPIVVDFTATWCGPCKMIAPLFETLSNDYAGKVIFLKVDVDAVAAVAEAAGITAMPTFHVYKDGVKADDLVGASQDKLKALVAKHAAA” here?
**A.** soluble

**Q.** With “MSLTTELKTEALPTRTQVDPKHCWDTTLMYANREEWKKDFDLCSSGKDRSPIWPEFSPSHYQIDNPESLLELLSKKFSVERKLDQLYIYAHLIHDQDITNPEGESDYQSIVYLYTLFSQEISWIQPALIALSEEKVAALLSSSVLAPYRFYLEKIFRLSPHTGTANEEKILASSFAALNVSNKAFSSLSDAEIPFGIAKDSNGEEHPLSHALASLYMQSPDQELRRTAYLAQFQRYYDYRNTFANLLNGKVQAHLFEAKARNYPSCLEASLFQHNIPTTVYINLINETKKHTSLINRYFNLKKEALNLKEFHFYDVYAPISQTTSKNYSYEEGVDLVCKSLLPLGTHYVEILRNGLLSNRWVDRYENKHKRSGAYSSGCYDSAPYILLNYTNTLYDVSVIAHEAGHSMHSYFSREAQPYHDAQYPLFLAEIASTFNEMLLMEALSKSDQSKEDKIVIITKTLDTIFATLFRQTFFAAFEYEIHSAAEQGTPLTEEFLSATYGNLQKEFYGGVVTSDSLSALEWARIPHFYYNFYVYQYATGIIAALSFAEKILTQEPGALELYLKFLKSGRSDFPLNILKKSGLDMTTSAPLDKAFAFITKKIDLLSSLLSEDEGHHHHHH” as the sequence, how does the “soluble on expression in E. coli” value read?
**A.** soluble

**Q.** Which “soluble on expression in E. coli” value does the source give for “MAHHHHHHMQLQPPKPIIKDFNVGISPLVQTRLPLVFAQGEYPPPMQDVLLVGISLKADFSAVWDWNTKHMYVACIGRYHTKSNMTVGGVNLQKTHDVTIFDKVLRSKEEAANWTLDNAKKYALENEELGSLAGAAVELMILYHPMRHYGYSPYYTVQPGKNPVMFQLPTAYEKRTEEDDKNAMCSRGYA” here?
**A.** not soluble

**Q.** With “PISSEQKQLISQLTDLGYSFDGLQTGYPGGEPDWHYVKELSGIEEKDLIKSFSKKGKPLVKKAKTFGIKLKKLKRDELSIFKEITSATSDRREYSDKSLDYYQDFYDAFGDNADFMVATLNFQDYFDHLESNQAKLRARIVKLQADLETNPTSEKKQNQLRELSSQLETFDVRKGEATAFIDKYGQEDIVLAGSLFVYTPQEAVYLFSGSYPEFNKFYAPALLQEYVMTQAIKRGIGFYNFLGIMGIFDGSDGVLRFKQNFNGYIVRKMGTFRYYPQPLKYKAIQGVKKLLGRN” as the sequence, how does the “soluble on expression in E. coli” value read?
**A.** not soluble
